Data published in publication PMC5995566 (Biochemistry, 2017).

Target: T1, human S100A5 (human)
T1 sequence (P33763 1-92, looked up): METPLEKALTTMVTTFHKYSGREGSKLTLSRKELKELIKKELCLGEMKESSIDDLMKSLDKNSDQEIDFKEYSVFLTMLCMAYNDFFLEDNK
Test: ITC

Kd: 18 ± 4 µM
dH: -3.6 ± 1 kcal/mol
B1: 12 amino acid fragment of the protein NCX1 (peptide)
chain: RRLLFYKYVYKR
